Data published in the supplement of paper PMC10126150.
± gives the standard deviation of the averaged measurements.

What follows are sequences tested on ATP (assay: switch fluorescence ratio, 500 uM ATP over buffer (Cy3 cluster intensity, sum of 5 cycles each) (fold (ratio)); higher = stronger signal-on switching upon ATP binding; sequences stand for … in TCGTCGGCAGCGTCAGATGTGTATAAGAGACAGTTTTTTTTTTTTTTTTTTTTTTTTT…TC). Settings: aptamer strand: ATP DNA aptamer (quencher-CACCTGGGGGAGTATTGCGGAGGAAGG + anchor), 100 nM annealed; ATP concentration: 500 uM.
Procedure, shortened: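 For every switch-domain sequence, the fluorescence ratio is the mean of per-cluster values, each being summed target-cycle Cy3 intensity over summed buffer-cycle Cy3 intensity. Clusters outside 100-1000 RFU were excluded. On a modified Illumina MiSeq flow-cell, the Cy3-labelled switching-strand clusters were annealed to 100 nM quencher-labelled ATP aptamer, imaged in selection buffer and then after 15 min with 500 uM ATP at 22 °C. Five such cycles were run, with NaOH stripping and re-annealing between them.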
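Further: ATP exposure 15 min at 22 °C before imaging.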

Sequence	switch fluorescence ratio
ACGGAGTTAC	1.84 ± 0.18
AAGCGCGACG	0.991 ± 0.027
GAGAGTTGGG	0.985 ± 0.022
GGCGAGTATG	0.9522 ± 0.0037
GATGATGGTG	0.968 ± 0.011
GAGAAAAACC	1.02 ± 0.041
GTGGATTTTT	0.991 ± 0.015
ATGCCTGGGC	1.03 ± 0.057
GATTGCCGTG	1.03 ± 0.024
GTGGACTTTG	0.971 ± 0.053
TAACTCAAGA	0.9979 ± 0.0066
CCTTTATCGG	0.997 ± 0.012
TATTGTTAAA	0.987 ± 0.029
TAACAGAGTG	1 ± 0.023
GAAAGGGGTG	1.02 ± 0.064
GGTCCAGTGT	1.06 ± 0.016
TTTGGAATAG	1.06 ± 0.045
TGAAAGCCGG	0.965 ± 0.045
GGTTGGTGGT	1.028 ± 0.0064
CGTTTATGAG	1.022 ± 0.0067
GAATGGTGGG	0.988 ± 0.019
AGGATGATGC	0.979 ± 0.026
ATAAAGCTTA	1 ± 0.03
CGCGAGCTTT	1.015 ± 0.0032
GCGAGGAATC	1.0365 ± 0.00015
AGCAGGGTGG	1.02 ± 0.038

Sequence	switch fluorescence ratio
AGTGATGGGG	0.987 ± 0.037
TGGTTCAAGT	0.984 ± 0.011
TAGGCGCTAG	0.999 ± 0.011
GAGATTTAGC	1.03 ± 0.035
TTGTTTTATT	0.981 ± 0.038
AGCTCCTCAT	1.1 ± 0.03
TTGGCCACCG	1.08 ± 0.096
GCGATGCCTG	0.973 ± 0.071
GCTTGGGGAT	1.01 ± 0.033
GGGGGTGACC	1.02 ± 0.025
GGATGGGGGA	1.02 ± 0.03
GGAACTGTCT	1.01 ± 0.013
TAGTCTGGGC	0.986 ± 0.037
AGATGAGGAC	0.922 ± 0.049
CTTGTATAGC	0.992 ± 0.028
CTGCATAGGT	1.31 ± 0.38
AAGTATGGGT	0.998 ± 0.028
CCGGGGTGGG	0.9964 ± 0.0055
GAGGTTATAC	1.38 ± 0.042
TTAAGATGGT	0.983 ± 0.029
GCATAAGGTT	0.993 ± 0.031
CGGAGTATAT	1.87 ± 0.11
TTATCCAGGA	1.006 ± 0.0093
ATGGCTGGGG	1 ± 0.019
GTAAGGAGAG	1.02 ± 0.017
GGGAGTAGGC	0.731 ± 0.022

Sequence	switch fluorescence ratio
CTTTTTTTGG	1 ± 0.022
GATGGTTCGC	0.976 ± 0.015
TTGCCATCCT	0.98 ± 0.042
GAAATGTCGG	1.02 ± 0.028
AGGGTAAGGA	1.09 ± 0.18
CAGCATAGAT	1.08 ± 0.023
TTAGGGGAGT	1.02 ± 0.066
CCGGCCCCGG	1.68 ± 0.028
TATGGATCTT	0.983 ± 0.027
CTCAGGGGGT	0.9759 ± 0.007
CAGTATGTCC	0.966 ± 0.035
TTATAAATAC	1.91 ± 0.7
GGGTTATTAG	0.986 ± 0.018
CGGGGGGTTA	1.01 ± 0.033
GGGGTTAGCG	0.991 ± 0.021
GACGTCAGAT	0.9767 ± 0.0018
CGAGGGTAGA	1.01 ± 0.03
CCAGGGGGTC	1.11 ± 0.14
AGTGGGAGGA	0.996 ± 0.02
CCAATCTGAC	1.3 ± 0.14
TAGCTTTTTA	1 ± 0.026
CCAGTACTTC	1.11 ± 0.023
TTCGTTGATG	0.985 ± 0.016
CATTCTGACG	1.18 ± 0.033
GGGTCGTCAT	1.01 ± 0.015
TTAGAGAAAA	1.03 ± 0.079

Sequence	switch fluorescence ratio
CGTGAGGATT	1 ± 0.022
AGGGGGCAGG	1.01 ± 0.017
GAAGTGAGTT	1 ± 0.018
TGACGTCAGT	0.972 ± 0.014
GTTGGTTTTG	1.008 ± 0.0057
ACTACGTCGG	1.08 ± 0.044
AGGGCCCCTG	0.9941 ± 0.0044
ATAGGGAGGT	1.01 ± 0.032
AGGGAAGGGG	1.1 ± 0.17
CGGTAGCGGG	1.008 ± 0.007
TCACTATTTA	1.013 ± 0.0082
AATCATAGTA	1.011 ± 0.0089
GTGCTGGTTT	1.05 ± 0.14
TCGGGAAAAA	0.991 ± 0.032
TTTTAGTTTT	1 ± 0.031
TGTGACCGAA	0.9794 ± 0.0017
TTTGTCATTC	1 ± 0.0017
GCCCGTTTTT	1 ± 0.029
GTCTGAAGGG	1.0152 ± 0.0004
TAGGAGGGT	1.033 ± 0.0037
CGGGTGGTTT	0.988 ± 0.03
AGGGCATTGA	1.01 ± 0.022
TCATGGGCGC	1.01 ± 0.014
CGTATTATTG	1.01 ± 0.02
GATGTGCAAA	1.01 ± 0.022
CATTATTGGG	0.9851 ± 0.0017

Sequence	switch fluorescence ratio
TACCGGCTCA	0.999 ± 0.017
TGTTAGATGA	0.976 ± 0.013
TAGTGGGGCC	1.01 ± 0.019
CAATTATGAC	1 ± 0.045
ATGTCATTGG	1.01 ± 0.024
GGGCTTAACG	0.982 ± 0.014
TTCGAAGTTG	0.999 ± 0.034
GATGCGGGGG	1.02 ± 0.039
CCGGCCCACA	1.266 ± 0.0065
GCGGGGA	0.998 ± 0.015
ACGTCGGAG	0.995 ± 0.046
GGATGTTTTG	1.03 ± 0.015
AAATCTAGAC	0.998 ± 0.011
TCGTATTCGG	0.992 ± 0.025
TCGACGATTC	1.52 ± 0.14
TATCAAAAGA	1.03 ± 0.016
AAATGTGAAT	1 ± 0.029
AGGGAGGGTT	1 ± 0.039
GTAGGCTAGT	1 ± 0.033
ATTTAGTGAC	1.02 ± 0.051
GGATTCCGGG	0.988 ± 0.027
TAACAATTAA	1.03 ± 0.058
AAGAGTACAT	0.993 ± 0.034
TCCTTCTCTT	1.05 ± 0.021
TTCCGGGGTT	1.03 ± 0.022
GAAATTTAAA	0.99756 ± 0.00083

Sequence	switch fluorescence ratio
CTGAGTCAAT	2.23 ± 0.042
AATAGGAAGG	1.01 ± 0.046
CGGTGTAGCT	1.03 ± 0.019
TGGACACTGC	1.02 ± 0.011
TCGAGTTTGG	1.01 ± 0.022
GCCCACCGAT	1.06 ± 0.031
ATCTGTGGTT	0.978 ± 0.023
TCAGTGAACT	1 ± 0.039
CGAAGAACTA	1.023 ± 0.0028
TTTAAATTTT	1 ± 0.03
TTTTGGATGC	1.05 ± 0.045
GAAACGGATG	0.993 ± 0.041
TTAAGTTAGG	1.02 ± 0.012
GTATGTCCCC	1.0169 ± 0.00096
AGTGCGGGTT	1.02 ± 0.025
ACCATCAGCG	1.038 ± 0.0019
TTGAGTTGGG	0.973 ± 0.041
GAAATTAATA	0.993 ± 0.027
TTCGTTCGGG	0.992 ± 0.041
TTTTTATCTG	0.9654 ± 0.002
TAAACATCAC	1.164 ± 0.011
TATTGCTATT	0.972 ± 0.017
TCGTGACGAA	1.03 ± 0.02
